Measurements taken from patent US20060239998A1 (D COLLEN RESEARCH FOUNDATION VZW, published 2006).

Molecular target: human monoclonal antibody BO2C11, FVIII-specific IgG4kappa inhibitory antibody against the C2 domain
Assay: cell-based or functional assay

B1: Fab fragments of Ab 14C12 (Fab, V domains shown)
VH: EVQLQQSGPELVKPGASVKLSCKASGYTFTSSVMHWLKQKSGQGLEWIGYINPYNDGTKYNEKFTAKATLTSDKSSSTVYMELSGLTSEDFAVYYCARSGGLLRGYWYFDVWGAGTTVTVSS
VL: DLVLTQSPATLSVTPGDSVSLSCRASQDITNTLHWYHQKSHESPRLLIKYVSQSISGIPSRFSGSGSGTVFTLSINSVETEDFGVYFCQQSTSWPYTFGGGTKLEIKR
- neutralisation of BO2C11 inhibitory activity (chromogenic assay): 50 % neutralisation at 1/8 BO2C11/Fab molar ratio
